Data on 49 molecules can be found in patent US20220153796A1.

The test addresses HLA-B*44 (human). As to the kind of experiment: UV peptide exchange ELISA.
For SEKGVIQVY, the peptide exchange yield lay in the range of 50 to 75%.

Regarding EEIEGKGSFTYF, the peptide exchange yield was in the range of 50 to 75%.

For the molecule VEAPGPVHVYW, the peptide exchange yield is above 75%.

Molecule KELEATKQY registered a peptide exchange yield of 20 to 50%.

As for GEIIMQNNW, the peptide exchange yield is above 75%.

For the molecule HEFSSPSHL, the peptide exchange yield lay in the range of 50 to 75%.

Consider KEVDPAGHSY, for which the peptide exchange yield fell in the range of 20 to 50%.

Molecule AEVPTGVII registered a peptide exchange yield of 50 to 75%.

Regarding TDSIHAWTF, the peptide exchange yield fell in the range of 50 to 75%.

AENLFRAF displayed a peptide exchange yield of 20 to 50%.

For the molecule QEQDVDLVQKY, the peptide exchange yield fell in the range of 20 to 50%.

Turning to ALNPYQYQY, the peptide exchange yield was in the range of 50 to 75%.

EEATGQFHVY showed a peptide exchange yield of 50 to 75%.

MEVPVIKI registered a peptide exchange yield of 20 to 50%.

For SEMNVNMKY, the peptide exchange yield is above 75%.

With GEVHPSEMI, the peptide exchange yield is 50 to 75%.

Take NEVLTYIKF: the peptide exchange yield is above 75%.

The molecule EEVNYINTF registered a peptide exchange yield of 50 to 75%.

Regarding KEADIHFLI, the peptide exchange yield is above 75%.

In turn, FEYDFLLQRI displayed a peptide exchange yield above 75%.

In turn, AEDEPAAAHL had a peptide exchange yield of 20 to 50%.

TENRYCVQL: the peptide exchange yield was above 75%.

Molecule AEQDMRELTY returned a peptide exchange yield of 50 to 75%.

For the molecule EDAQGHIW, the peptide exchange yield was in the range of 50 to 75%.

GECDVFKEIL came in with a peptide exchange yield of 50 to 75%.

In the case of AEMLESVIKNY, the peptide exchange yield lay within 50 to 75%.

Take YEIEARNQVF: the peptide exchange yield was in the range of 50 to 75%.

As for AETLSTIQI, the peptide exchange yield was 50 to 75%.

In the case of QEMQHFLGL, the peptide exchange yield was in the range of 50 to 75%.

The molecule SENLFFASF registered a peptide exchange yield above 75%.

The molecule TEFTTVLY returned a peptide exchange yield of 20 to 50%.

For the molecule EEGRVYLF, the peptide exchange yield was in the range of 50 to 75%.

KEGDLGGKQW displayed a peptide exchange yield of 50 to 75%.

As to AETPIQNVI, the peptide exchange yield is 50 to 75%.

Molecule NEHPSNNW had a peptide exchange yield of 50 to 75%.

Molecule SEFMQVIF had a peptide exchange yield of 50 to 75%.

MEVDPIGHVYIF returned a peptide exchange yield above 75%.

The molecule AEIQGNINHV returned a peptide exchange yield of 50 to 75%.

In turn, GEFPVRVQV yielded a peptide exchange yield of 20 to 50%.

For AELDKLTSV, the peptide exchange yield was 50 to 75%.

The molecule SEGSEPALLHSW returned a peptide exchange yield of 50 to 75%.

The molecule TEDPTILRI displayed a peptide exchange yield of 50 to 75%.

DELFSIALY showed a peptide exchange yield above 75%.

RELENCFQIQ: the peptide exchange yield was 50 to 75%.

Molecule SDMVRFHLF registered a peptide exchange yield of 20 to 50%.

As for EEIERFFKL, the peptide exchange yield lay within 50 to 75%.

The molecule IEFIHPQAF came in with a peptide exchange yield above 75%.

For the molecule ASSSGPMRWW, the peptide exchange yield was in the range of 20 to 50%.

The molecule SEPALLHSW returned a peptide exchange yield of 50 to 75%.
